Paper PMC6005179

Tests used:
[1] = target: preF (DS-Cav1) with a C-terminal 8x His-tag and AviTag (respiratory syncytial virus (strain not stated)) (UniProt P03420); experiment: SPR
[2] = target: preF-stabilized variant of RSV F (PR-DM), tags removed, deglycosylated (respiratory syncytial virus (strain not stated)) (UniProt P03420); experiment: crystal structure

Substance | fold reduction in affinity against ADI-19425 [1] [fold] | stoichiometry N (Fab per preF trimer) [2]
ADI-19425 Fab, light chain Y31A variant | > 200 | –
ADI-19425 Fab, light chain Y91A variant | > 80 | –
AM22 Fab | – | 3
